The target of one data set is T1, hNotum (Homo sapiens, UniProt Q6P988).
T1 construct: 8x-His; Strep-tag II; IgK signal peptide/leader of the pSEC-CAG vector (N); made in house; host or cells: HEK293T (adherent) / suspension 293 cells
T1 sequence (Q6P988 20-496): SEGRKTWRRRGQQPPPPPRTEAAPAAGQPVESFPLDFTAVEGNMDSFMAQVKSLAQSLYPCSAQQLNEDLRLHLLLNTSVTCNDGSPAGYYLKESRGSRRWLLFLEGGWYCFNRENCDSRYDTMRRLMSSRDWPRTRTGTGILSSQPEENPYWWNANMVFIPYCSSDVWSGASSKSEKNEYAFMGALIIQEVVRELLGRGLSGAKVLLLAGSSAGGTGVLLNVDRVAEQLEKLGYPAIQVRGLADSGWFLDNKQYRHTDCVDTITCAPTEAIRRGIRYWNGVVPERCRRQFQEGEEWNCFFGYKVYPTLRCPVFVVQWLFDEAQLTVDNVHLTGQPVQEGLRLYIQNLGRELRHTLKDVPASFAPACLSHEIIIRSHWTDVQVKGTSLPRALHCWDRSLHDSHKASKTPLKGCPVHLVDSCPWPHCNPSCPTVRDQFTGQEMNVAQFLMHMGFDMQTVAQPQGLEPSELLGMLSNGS
Briefly: Inhibition of hNotum esterase activity. In kind it is biochemical. To be noted: preincubation with hNotum. Here is the method:
Briefly, PNPA or PNPB were dissolved/diluted in isopropanol to final concentrations of 10 mM. These substrate solutions were diluted 1:10 into assay buffer (0.1% gum arabic, 2.3 mg/mL sodium dexoycholate, 1×PBS) and incubated with defined amounts of hNotum enzyme, and the enzymatic release of the chromophore p-nitrophenol monitored by absorbance measurements at 405 nm.
The results presented immediately above indicate that the measured esterase activity may be used to provide an assay that allows for the further characterization of the disclosed Notum modulators. […] As may be seen in FIG. 18A an increase in hNotum levels increases measured enzymatic activity even, to some extent, in the case where the SC2.D2.2 antibody is present. Conversely, FIG. 18B provides a dose response curve of measured enzymatic activity where the amount of hNotum is fixed at 1 μg/mL and the concentration of SC2.D2.2 is varied. […] In contrast a control antibody (MOPC) has no effect on the esterase activity of Notum (data not shown).

In another data set the test system is macaque Notum N141D. Briefly: Neutralization of point mutated macaque Notum, TCF assay. The class given is cell-based. The source says:
Similarly, the macaque residue at this position was point mutated to the human residue (N141D). […] However, these point mutants differed in their ability to be neutralized by SC2.D2.2 (FIG. 26).

The target in a further data set is T2, hNotum-Fc (Homo sapiens, UniProt Q6P988).
T2 construct: IL-2 signal peptide (N); made in house; host or cells: CHO-S
Briefly: Triton X114 partition assay, blocking of hNotum-Fc. The class given is biochemical. To be noted: hNotum-Fc preincubated with antibody. The source says: If Notum directly acts upon Wnt3A to delipidate the protein, this cleavage should result in a change in the hydrophobicity of the protein, which can be measured by a change in its partitioning behavior between aqueous and detergent phases in a Triton X114 partition assay (Bordier, 1981, PMID: 6257680): lipidated Wnt3A will be found in the […], whereas delipidated Wnt3A should show up in the […] (Willert et al., 2003, PMID: 12717451). […] An equal volume of 4.5% Triton X114 was added to the mixture, the mixture incubated on ice for 5 minutes, then at 37° C. for five minutes, before separating the phases using centrifugation at 2000×g for five minutes at room temperature. Following separation each sample was adjusted to normalize the ionic strength and Triton X114 content before analyzing the aliquots by PAGE electrophoresis. After running the gel the protein bands were transferred to a membrane for immunoblotting using an anti-rhWnt3A antibody (Cell Signaling Technology). Bands were visualized using SuperSignal West Pico Chemiluminescent substrate (Thermo Fisher Scientific).
Lane 1 is a positive molecular weight marker for rhWnt3A while the presence or absence of reagents in each aliquot is noted above the respective lane (where a is the aqueous fraction and t is Triton X-114 fraction, and the sliding bar indicates the concentration of Notum modulator). […]

The target in another data set is T3, Notum (Homo sapiens, UniProt Q6P988).
T3 sequence (Q6P988 20-496): T1 sequence (Q6P988 20-496)
Briefly: Bio-layer interferometry on ForteBIO RED. In kind it is binding. To be noted: 250, 125 and 62.5 nM antigen. As for the experimental part: Three methods were used to characterize the affinity of humanized SC2.D2.2 relative to its analogous mAb with the murine variable region. First, binding signal was measured for a fixed amount of antibody probed against serial dilutions of antigen in an ELISA format. […] Second, the affinity of murine SC2.D2.2 was measured by Biacore using surface plasmon resonance (SPR) to provide the results set forth in FIG. 32A. Based on a concentration series of 12.5, 6.25, 3.125, 1.5625, 0.78125 nM and using a 1:1 Langmuir binding model, the Kd of the antibody binding to antigen was estimated to be less than 0.1 nM. Long off-rates for this interaction made accurate determination of affinity through kinetics difficult. The murine antibody was then directly compared to the humanized derivative using bio-layer interferometry analysis on a ForteBIO RED (ForteBIO, Inc.) with a concentration series of 250, 125, and 62.5 nM antigen.
(In BLI a coated tip is dipped into the sample, and binding shifts an interference pattern.)

The target of data set [1] is T4, human Notum (recombinant or endogenous; construct not specified at the place of use) (human, UniProt Q6P988 20-496).
T4 construct: also called hNotum; human Notum protein
T4 sequence: T1 sequence (Q6P988 20-496)
Kind of data set: SPR (Biacore), antigen at 12.5 to 0.78125 nM, 1:1 Langmuir binding model. Here is the method:
Binding characteristics for antibodies were assessed using antibody capture Biacore technology. Disassociation constant values Kd (koff/kₒₙ) were determined for selected antibodies. A Biacore 3000 (GE Healthcare) biosensor was used for surface plasmon resonance (SPR) kinetic measurements. Using purified antibody quantitative koff constants were derived through capture the antibody on the sensor surface. Anti-mouse IgG was immobilized on the CM5 surface of sensor chip using standard amine coupling chemistry. Each mAb was captured onto an anti-IgG surface before the antigen was injected over the immobilized antibody allowing the antibody-antigen interaction to be analyzed.
Three methods were used to characterize the affinity of humanized SC2.D2.2 relative to its analogous mAb with the murine variable region. First, binding signal was measured for a fixed amount of antibody probed against serial dilutions of antigen in an ELISA format. Measured signal levels were substantially similar (data not shown). Second, the affinity of murine SC2.D2.2 was measured by Biacore using surface plasmon resonance (SPR) to provide the results set forth in FIG. 32A. […] Long off-rates for this interaction made accurate determination of affinity through kinetics difficult. […]
On the technique in general: SPR reads the build-up and loss of mass on a sensor chip optically.

The text below walks through data of patent US20130224191A1, “NOTUM PROTEIN MODULATORS AND METHODS OF USE” (priority 2010, published 2013).

T2 sequence (Q6P988 with tags, fused parts or gaps): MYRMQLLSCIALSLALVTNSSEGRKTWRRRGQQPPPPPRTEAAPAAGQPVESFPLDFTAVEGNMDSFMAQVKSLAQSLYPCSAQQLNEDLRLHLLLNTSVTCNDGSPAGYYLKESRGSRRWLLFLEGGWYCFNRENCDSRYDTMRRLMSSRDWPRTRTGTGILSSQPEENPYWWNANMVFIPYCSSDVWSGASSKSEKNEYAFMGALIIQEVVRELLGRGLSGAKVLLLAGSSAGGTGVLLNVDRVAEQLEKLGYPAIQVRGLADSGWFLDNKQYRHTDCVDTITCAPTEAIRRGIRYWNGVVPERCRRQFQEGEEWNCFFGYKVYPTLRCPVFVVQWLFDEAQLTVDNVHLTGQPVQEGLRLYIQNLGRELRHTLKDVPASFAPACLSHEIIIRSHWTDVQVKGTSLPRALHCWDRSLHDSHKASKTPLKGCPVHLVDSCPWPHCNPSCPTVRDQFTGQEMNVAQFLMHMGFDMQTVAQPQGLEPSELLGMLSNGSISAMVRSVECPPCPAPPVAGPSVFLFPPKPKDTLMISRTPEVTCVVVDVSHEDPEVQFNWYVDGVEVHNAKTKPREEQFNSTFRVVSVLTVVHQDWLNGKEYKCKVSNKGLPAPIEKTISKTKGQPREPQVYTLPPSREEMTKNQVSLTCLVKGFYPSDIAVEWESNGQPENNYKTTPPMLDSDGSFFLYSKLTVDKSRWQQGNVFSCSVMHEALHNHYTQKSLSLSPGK

B1: SC2.D2.2 (antibody, V domains shown)
VH: DVQLVESGGGLVQPGGSRKISCAASGFTFSSYGMHWVRQAPEKGLEWVAYISSSTVTTYYADTVKGRFTISRDNANNTLFLQMTSLRSEDTAMYYCSRQNWDGGYFDVWGAGTTVTVSS
VL: DIVLTQSLASLAVSLGQRATISCRASKSVSSSGYSYMHWYQQKPGQPPKLLIYLASNLESGVPARFSGSGSGTDFTLNIHPVEEEDAATYYCQHSRALPLTFGAGTKLELKR
notes: also called murine SC2.D2.2
Consider B1, for which the “effect on esterase activity of hNotum” value with hNotum is “greatly reduced esterase activity”. Moreover, the “neutralization of mutant Notum protein” value in the data set with macaque Notum N141D is “now enabled SC2.D2.2 to neutralize the mutant protein”. In addition, the “blocking of Notum induced redistribution of rhWnt3A” value in the data set with hNotum-Fc is “can be blocked”. Also, the “affinity, binding curves” value with Notum is given as “excellent affinity”. Besides, in data set [1], the Kd was under 0.1 nM.

As usually defined, the Kd is the concentration at which binding is half-saturated.
